# Source: the Immune Epitope Database (IEDB)
# Tests used:
# [1] = biological target: HLA-A*01:01; test: IEDB peptide-MHC binding, purified MHC/competitive/fluorescence; ≥ and ≤ were set here for values at or beyond the usual limits of such assays
# [2] = biological target: HLA-B*15:01; test: as above
# [3] = biological target: HLA-A*01:01; test: IEDB peptide-MHC binding, purified MHC/direct/fluorescence; filed as Kd, often an IC50 or EC50 that approximates it; ≥ and ≤ were set here for values at or beyond the usual limits of such assays; details: source organism: Ebola virus - Eckron (Zaire, 1976)
# [4] = biological target: HLA-A*02:11; test: as above
# [5] = biological target: HLA-A*02:12; test: as above
# [6] = biological target: HLA-A*02:19; test: as above
# [7] = biological target: HLA-A*03:01; test: as above
# [8] = biological target: HLA-A*29:02; test: as above; details: source organism: Zaire ebolavirus
# [9] = biological target: HLA-A*68:02; test: as above
# [10] = biological target: HLA-A*02:01; test: IEDB peptide-MHC binding, purified MHC/competitive/fluorescence; filed as Kd, often an IC50 or EC50 that approximates it; ≥ and ≤ were set here for values at or beyond the usual limits of such assays
# [11] = biological target: HLA-A*26:01; test: as above
# [12] = biological target: HLA-A*69:01; test: as above
# [13] = biological target: HLA-B*15:17; test: as above
# [14] = biological target: HLA-B*18:01; test: as above
# [15] = biological target: HLA-B*27:03; test: as above
# [16] = biological target: HLA-B*39:01; test: as above
# [17] = biological target: HLA-B*46:01; test: as above
# [18] = biological target: HLA-B*51:01; test: as above
# [19] = biological target: HLA-B*57:01; test: as above
# [20] = biological target: HLA-A*01:01; test: as above; details: source organism: Measles morbillivirus
# [21] = biological target: HLA-A*29:02; test: as above; details: source organism: Measles morbillivirus
# [22] = biological target: HLA-A*02:01; test: IEDB peptide-MHC binding, purified MHC/competitive/fluorescence; ≥ and ≤ were set here for values at or beyond the usual limits of such assays
# [23] = biological target: HLA-A*24:02; test: as above
# [24] = biological target: HLA-B*08:01; test: as above
# [25] = biological target: HLA-A*02:03; test: IEDB peptide-MHC binding, purified MHC/direct/fluorescence; filed as Kd, often an IC50 or EC50 that approximates it; ≥ and ≤ were set here for values at or beyond the usual limits of such assays; details: source organism: Orthohantavirus andesense
# [26] = biological target: HLA-A*02:16; test: as above; details: source organism: Orthohantavirus andesense
# [27] = biological target: HLA-A*24:03; test: IEDB peptide-MHC binding, purified MHC/competitive/fluorescence; filed as Kd, often an IC50 or EC50 that approximates it; ≥ and ≤ were set here for values at or beyond the usual limits of such assays; details: source organism: Orthohantavirus andesense
# [28] = biological target: HLA-A*03:01; test: IEDB peptide-MHC binding, purified MHC/competitive/fluorescence; ≥ and ≤ were set here for values at or beyond the usual limits of such assays; details: source organism: Vaccinia virus
# [29] = biological target: HLA-A*11:01; test: as above; details: source organism: Vaccinia virus
# [30] = biological target: HLA-B*07:02; test: as above; details: source organism: Vaccinia virus
# [31] = source organism: Zaire ebolavirus
# [32] = source organism: Vaccinia virus Copenhagen
# [33] = source organism: Orthohantavirus andesense
# [34] = source organism: Vaccinia virus
sequence,measurement,setting,value
NSTHNTPVY,IC50,[1]; [31],29.1 µM
same,IC50,[2]; [31],≥ 119 µM
same,Kd,[3],≥ 20 µM
same,Kd,[4]; [31],≥ 20 µM
same,Kd,[5]; [31],≥ 20 µM
same,Kd,[6]; [31],≥ 20 µM
same,Kd,[7]; [31],≥ 20 µM
same,Kd,[8],≥ 20 µM
same,Kd,[9]; [31],≥ 20 µM
same,Kd,[10]; [31],≥ 20 µM
same,Kd,[11]; [31],≥ 20 µM
same,Kd,[12]; [31],≥ 20 µM
same,Kd,[13]; [31],≥ 20 µM
same,Kd,[14]; [31],≥ 20 µM
same,Kd,[15]; [31],≥ 20 µM
same,Kd,[16]; [31],≥ 20 µM
same,Kd,[17]; [31],≥ 20 µM
same,Kd,[18]; [31],≥ 20 µM
same,Kd,[19]; [31],≥ 20 µM
SFSYFYPFR,Kd,[20],≥ 20 µM
same,Kd,[21],0.458 µM
TFALKKLII,IC50,[22]; [32],≥ 131 µM
same,IC50,[23]; [32],0.323 µM
same,IC50,[24]; [32],≥ 132 µM
VRQRVIPVY,IC50,[22]; [31],≥ 524 µM
same,IC50,[23]; [31],23.4 µM
same,IC50,[24]; [31],≥ 210 µM
same,IC50,[2]; [31],3.26 µM
VWKQLFPEL,Kd,[25],≥ 20 µM
same,Kd,[4]; [33],≥ 20 µM
same,Kd,[5]; [33],≥ 20 µM
same,Kd,[26],≥ 20 µM
same,Kd,[6]; [33],≥ 20 µM
same,Kd,[7]; [33],≥ 20 µM
same,Kd,[9]; [33],≥ 20 µM
same,Kd,[10]; [33],≥ 20 µM
same,Kd,[27],0.0105 µM
same,Kd,[11]; [33],≥ 20 µM
same,Kd,[12]; [33],≥ 20 µM
same,Kd,[13]; [33],≥ 20 µM
same,Kd,[14]; [33],≥ 20 µM
same,Kd,[15]; [33],≥ 20 µM
same,Kd,[16]; [33],≥ 20 µM
same,Kd,[17]; [33],≥ 20 µM
same,Kd,[18]; [33],≥ 20 µM
same,Kd,[19]; [33],≥ 20 µM
WAMEKSSKY,IC50,[1]; [34],36.8 µM
same,IC50,[22]; [34],≥ 122 µM
same,IC50,[28],≥ 265 µM
same,IC50,[29],≥ 130 µM
same,IC50,[30],≥ 624 µM
same,IC50,[2]; [34],9.18 µM
